Results from US20240262912A1 (MERUS N V, published 2024).

Experiments:
[1] = target: T1, Human CLEC12A on cells (HL60, CLEC12A-CHO-K1, primary blood, bone marrow and AML cells) (human, UniProt Q5QGZ9 1-265); assay: cell-based or functional assay
T1 sequence: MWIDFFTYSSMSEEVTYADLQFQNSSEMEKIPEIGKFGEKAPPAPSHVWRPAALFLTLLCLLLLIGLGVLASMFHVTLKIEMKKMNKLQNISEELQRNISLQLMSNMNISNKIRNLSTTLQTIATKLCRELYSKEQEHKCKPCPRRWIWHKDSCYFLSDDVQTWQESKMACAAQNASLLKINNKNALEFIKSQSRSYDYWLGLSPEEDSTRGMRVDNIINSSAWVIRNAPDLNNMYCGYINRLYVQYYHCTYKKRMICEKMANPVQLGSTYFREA

[2] = target: T1, Human CLEC12A on cells (HL60, …); assay: cell-based or functional assay; remark: listed apart in the source
[3] = target: T1, Human CLEC12A on cells (HL60, …); assay: cell-based or functional assay; remark: listed apart in the source
[4] = target: T2, Recombinant purified CLEC12A-His (Sino Biologicals) (human, UniProt Q5QGZ9 65-265); assay: SPR (Biacore T100); antibody captured on CM5 chip through mouse anti-human IgG, recombinant CLEC12A-His run over the surface
T2 construct: Bought protein; 11896-H07H; not shown: His tag
T2 sequence: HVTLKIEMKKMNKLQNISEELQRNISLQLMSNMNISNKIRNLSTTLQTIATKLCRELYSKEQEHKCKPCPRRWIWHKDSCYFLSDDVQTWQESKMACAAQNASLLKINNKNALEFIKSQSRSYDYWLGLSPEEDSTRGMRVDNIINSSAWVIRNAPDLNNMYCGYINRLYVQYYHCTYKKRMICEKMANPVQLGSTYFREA

median fold T cell expansion in primary AML samples, day 10 [1]: 48 fold
HL60 cell lysis, mean EC50 [2]: 0.0682 µg/mL
fold T cell expansion, primary AML sample of patient 10, day 10 [3]: 25 fold
fold T cell expansion, primary AML sample of patient 11, day 10 [3]: 6 fold
fold T cell expansion, primary AML sample of patient 12, day 10 [3]: 37 fold
fold T cell expansion, primary AML sample of patient 13, day 10 [3]: 139 fold
fold T cell expansion, primary AML sample of patient 14, day 10 (1,000 ng/mL) [3]: 64 fold
fold T cell expansion, primary AML sample of patient 15, day 10 (1,000 ng/mL) [3]: 25 fold
fold T cell expansion, primary AML sample of patient 16, day 10 [3]: 15 fold
fold T cell expansion, primary AML sample of patient 17, day 10 [3]: 98 fold
fold T cell expansion, primary AML sample of patient 18, day 10 [3]: 20 fold
fold T cell expansion, primary AML sample of patient 19, day 10 [3]: 60 fold
fold T cell expansion, primary AML sample of patient 20, day 10 (1,000 ng/mL) [3]: 157 fold
Kd [4]: 3 nM
B1: Antibody MF4327×MF5196, full length human IgG1 CLEC12AxCD3 bispecific antibody with silenced Fc effector function (bispecific antibody, V domains shown)
VH 1: QVQLVQSGAEVKKPGASVKVSCKASGYTFTSYYMHWVRQAPGQGLEWMGIINPSGGSTSYAQKFQGRVTMTRDTSTSTVYMELSSLRSEDTAVYYCAKGTTGDWFDYWGQGTLVTVSS
VH 2: QVQLVQSGGGVVQPGRSLRLSCVASGFTFSSYGMHWVRQAPGKGLEWVAAIWYNARKQDYADSVKGRFTISRDNSKNTLYLQMNSLRAEDTAVYYCTRGTGYNWFDPWGQGTLVTVSS
VL: not shown
notes: Full length human IgG1 with a common light chain; The CH3 domains are engineered for heterodimerisation, and changes in the CH2 regions remove Fc effector function; also called CLEC12AxCD3 bispecific IgG; Fcγ receptor-silenced antibody MF4327×MF5196
CD25 on CD4 T cells, mean EC50 (HL60 cytotoxicity assay) [2]: 0.351 µg/mL
CD25 on CD8 T cells, mean EC50 (HL60 cytotoxicity assay) [2]: 0.0957 µg/mL
CD69 on CD4 T cells, mean EC50 (HL60 cytotoxicity assay) [2]: 0.156 µg/mL
CD69 on CD8 T cells, mean EC50 (HL60 cytotoxicity assay) [2]: 0.0444 µg/mL
